According to patent US20210253716A1 (Regeneron, published 2021):
Substitutions are numbered along the chain they refer to.

B1: mAb29257 (antibody, human IgG4 S228P, kappa, V domains shown)
VH: EVQLVESGGNLVQPGGSLRLSCAASGFTFSNYAMSWVRQAPGKGLEWVSGITGNGIKTYYSVSAKGRFTISRDNSKNTLFLQMNSLRAEDTAIYYCVKERGHSWFGDWFDPWGQGTLVTVSS
VL: DIVMTQTPLSSPVTLGQPASISCRSSQGLVNSDGNTYLSWLHQRPGQPPRLLIYEISNRFSGVPDRFSGSGAGTDFTLKISRVEAEDVGFYYCMQSTQFPLTFGGGTKVEIKR
B2: mAb27245 (antibody, human IgG4 S228P, kappa, V domains shown)
VH: QVQLQQWGAGLLKPSETLSLTCAVYNGSFSSYYWNWIRQPPGKGLEWLGEINHRGSTNYNPSLTSRVTISVDTSKNQFSLKLTSVTAADTAIYYCTAHTRGFLYWGQGTLVTVSS
VL: DIQMTQSPSSLSASVGDRVTITCQASQDINNYLNWYQQKPGKAPKLLIYDASNLVPGVPSRFSGTGSGTDFSFTISSLQPEDIATYYCQHYYDLPLTFGGGTTVAIRR
B3: mAb27241 (antibody, human IgG4 S228P, kappa, V domains shown)
VH: B2 VH
VL: B2 VL with N31I, K39Q, A51V, D70H, Y92D

Tests used:
[1] = molecular target: T1, full length human ACVR1 (R206H) on HEK293/BRE-luc/hACVR1-R206H-clone H2 cells (human, UniProt Q04771 21-509); assay: cell-based or functional assay
T1 sequence: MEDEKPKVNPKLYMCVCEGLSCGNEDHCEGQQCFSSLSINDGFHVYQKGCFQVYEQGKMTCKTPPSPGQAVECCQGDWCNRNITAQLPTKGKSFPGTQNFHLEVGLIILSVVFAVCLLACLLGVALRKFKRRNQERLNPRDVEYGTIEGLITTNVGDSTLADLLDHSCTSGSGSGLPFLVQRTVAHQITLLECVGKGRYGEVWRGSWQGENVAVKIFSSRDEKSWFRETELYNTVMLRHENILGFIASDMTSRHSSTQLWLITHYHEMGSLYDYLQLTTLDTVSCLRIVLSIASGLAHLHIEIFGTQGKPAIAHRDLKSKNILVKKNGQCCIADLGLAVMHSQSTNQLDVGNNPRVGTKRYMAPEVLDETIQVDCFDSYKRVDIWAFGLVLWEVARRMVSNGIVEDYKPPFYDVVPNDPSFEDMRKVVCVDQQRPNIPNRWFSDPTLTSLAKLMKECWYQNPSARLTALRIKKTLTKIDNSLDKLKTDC

[2] = molecular target: T2, human ACVR1 extracellular domain expressed with a C-terminal myc-myc-hexahistidine tag (human); assay: SPR (Biacore), mAb captured, 37 C
T2 construct: also called hACVR1-MMH
T2 chain: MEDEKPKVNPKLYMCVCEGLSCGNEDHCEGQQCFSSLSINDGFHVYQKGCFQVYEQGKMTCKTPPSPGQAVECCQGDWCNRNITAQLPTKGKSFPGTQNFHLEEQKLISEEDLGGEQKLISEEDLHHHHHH
Method: (§1) Equilibrium dissociation constants (KD) for ACVR1 binding to purified anti-ACVR1 monoclonal antibodies were determined using a real-time surface plasmon resonance biosensor (SPR-Biacore), Biacore 4000. All binding studies were performed in 10 mM HEPES, 150 mM NaCl, 3 mM EDTA, and 0.05% v/v surfactant Tween-20, pH 7.4 (HBS-ET) running buffer at 25° C. and 37° C. The Biacore CM5 sensor surface was first derivatized by amine coupling with a monoclonal mouse anti-human Fc antibody (GE, #BR-1008-39 or REGN2567) to capture anti-ACVR1 monoclonal antibodies. […] ACVR1 reagents were then injected over anti-human Fc captured anti-ACVR1 monoclonal antibody surface for 2.5-3 minutes at a flow rate of 30 μL/minute, while the dissociation of monoclonal antibody bound ACVR1 reagent was monitored for 10-15 minutes in HBS-ET running buffer. Kinetic association rate constant (kₐ) and dissociation rate constant (kd) were determined by fitting the real-time sensorgrams to a 1:1 binding model using Scrubber 2.0c curve-fitting software. Binding dissociation equilibrium constants (KD) and dissociative half-lives (t½) were calculated from the kinetic rate constants as: […]

[3] = molecular target: T3, human ACVR1 extracellular domain expressed with a C-terminal mouse IgG2a Fc tag (human); assay: SPR (Biacore), mAb captured, 37 C
T3 construct: also called hACVR1-mFc
T3 chain: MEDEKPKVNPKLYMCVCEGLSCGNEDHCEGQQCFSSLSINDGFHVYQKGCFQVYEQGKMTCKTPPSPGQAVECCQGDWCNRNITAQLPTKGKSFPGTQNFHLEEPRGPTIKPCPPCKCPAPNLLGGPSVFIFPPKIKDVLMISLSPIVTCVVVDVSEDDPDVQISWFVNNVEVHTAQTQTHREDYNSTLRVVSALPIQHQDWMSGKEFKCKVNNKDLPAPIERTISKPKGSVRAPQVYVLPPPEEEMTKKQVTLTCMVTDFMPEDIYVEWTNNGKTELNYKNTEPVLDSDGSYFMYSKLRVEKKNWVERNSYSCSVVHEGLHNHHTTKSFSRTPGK
Method: as §1

[4] = molecular target: T4, mouse ACVR1 extracellular domain expressed with a C-terminal myc-myc-hexahistidine tag (mouse); assay: SPR (Biacore), mAb captured, 37 C
T4 construct: also called mACVR1-MMH; mACVR1-mmh
T4 chain: T2 chain with M1V, P10Q
Method: as §1

[5] = molecular target: T2, human ACVR1 extracellular domain …; assay: SPR (Biacore), mAb captured, 25 C
Method: as §1

[6] = molecular target: T3, human ACVR1 extracellular domain …; assay: SPR (Biacore), mAb captured, 25 C
Method: as §1

[7] = molecular target: T4, mouse ACVR1 extracellular domain …; assay: SPR (Biacore), mAb captured, 25 C
Method: as §1

[8] = molecular target: T1, full length human ACVR1 (R206H) on …; assay: flow cytometry, 70 nM antibody, HEK293/hACVR1-R206H cells
Method: Cells were fixed using BD CytoFix™ (Becton Dickinson, #554655) and analyzed on either Hypercyt® or IQue® Flow Cytometers (Intellicyt®). Unstained and secondary antibody alone controls were also tested for all cell lines. The results were analyzed using ForeCyt® (IntelliCyt®) software to determine the geometric means of fluorescence for viable cells and binding ratios were calculated by normalizing the geometric mean value of the test condition by the geometric mean value of the corresponding unstained cells.

Row | Binder | % Inhibition, BRE-luc reporter, 2 nM hBMP7 [1] [%] | IC50 [M], BRE-luc reporter, 2 nM hBMP7 [1] [M] | 900 nM or 100 nM Ag Bound (RU) [2] [RU] | Kd [2] [nM] | koff [2] [s⁻¹] | kon [2] [M⁻¹ s⁻¹] | t½ [2] [min] | 100 nM Ag Bound (RU) [3] [RU] | Kd [3] [nM] | koff [3] [s⁻¹] | kon [3] [M⁻¹ s⁻¹] | t½ [3] [min] | 900 nM or 100 nM Ag Bound (RU) [4] [RU] | 900 nM or 100 nM Ag Bound (RU) [5] [RU] | Kd [5] [nM] | koff [5] [s⁻¹] | kon [5] [M⁻¹ s⁻¹] | t½ [5] [min] | 100 nM Ag Bound (RU) [6] [RU] | Kd [6] [nM] | further results
1 | B1 | 62 | 1.4e-10 | 64 | 21.4 | 0.00326 | 153000 | 3.5 | 201 | 1.58 | 0.000495 | 314000 | 23 | 2 | 47 | 8.43 | 0.000521 | 61800 | 22 | 157 | 0.936 | koff [6]: 0.000121 s⁻¹; kon [6]: 129000 M⁻¹ s⁻¹; t½ [6]: 95 min; 900 nM or 100 nM Ag Bound (RU) [7]: -2 RU; MFI - Normalized to Unstained Control [8]: 1660 fold
2 | B2 | 110 | 1.5e-09 | 66 | 32.2 | 0.00173 | 53900 | 7 | 222 | 3.65 | 0.000335 | 91700 | 34 | 2 | 35 | 8.01 | 0.000207 | 25800 | 56 | 145 | 1.34 | koff [6]: 5.06e-05 s⁻¹; kon [6]: 38100 M⁻¹ s⁻¹; t½ [6]: 228 min; 900 nM or 100 nM Ag Bound (RU) [7]: 1 RU; binding result [7]: no binding (tested: 900 nM or 100 nM); MFI - Normalized to Unstained Control [8]: 1660 fold
3 | B3 | 110 | 1.8e-09 | 66 | 19.7 | 0.000852 | 43200 | 14 | 216 | 2.44 | 0.000201 | 82200 | 57 | 2 | 34 | 6.52 | 0.000123 | 18900 | 94 | 135 | 0.918 | koff [6]: 3.2e-05 s⁻¹; kon [6]: 34900 M⁻¹ s⁻¹; t½ [6]: 361 min; 900 nM or 100 nM Ag Bound (RU) [7]: 1 RU; binding result [7]: no binding (tested: 900 nM or 100 nM); MFI - Normalized to Unstained Control [8]: 1160 fold
